Measurements: paper PMC4183369

Molecular target: gp59(C42)-Cy3, helicase loader protein of the T4 bacteriophage DNA replisome (bacteriophage T4) (UniProt P13342)
Assay: FRET or BRET

UniProt P13342, sequence (P13342 whole entry): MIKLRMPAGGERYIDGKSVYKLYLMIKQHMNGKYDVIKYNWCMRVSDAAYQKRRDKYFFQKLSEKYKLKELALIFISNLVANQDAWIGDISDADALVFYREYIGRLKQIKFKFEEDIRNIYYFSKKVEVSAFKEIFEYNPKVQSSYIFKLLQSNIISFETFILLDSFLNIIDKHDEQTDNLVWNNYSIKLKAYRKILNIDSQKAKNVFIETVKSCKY

Cy5-N-gp43(exo-), T4 gp43 polymerase (from UniProt P04415 1-898) (enzyme)
duration of a single FRET event: > 80 s
